Patent publication US20180105572A1

Molecular target: α4β7 integrin on RPMI 8866 cells (UniProt P13612)
Test: cell-based or functional assay

| Cell Adhesion A4B7 (nM); RPMI 8866 cells adhering to plate-bound rh MAdCAM-1/Fc Chimera, MTT read-out [nM] | Substance |
| --- | --- |
| > 1000 | C-N cyclic peptide SEQ ID NO: 484, cyclo<a-(N-Me-R)-S-D-T-L-e> |
| > 10000 | C-N cyclic peptide SEQ ID NO: 495, cyclo<f-(N-Me-R)-S-D-T-L-a> |
| > 10000 | C-N cyclic peptide SEQ ID NO: 479, cyclo<a-(N-Me-R)-S-D-T-L-n> |
| > 10000 | C-N cyclic peptide SEQ ID NO: 477, Cyclo(a-(N-Me-R)-S-D-T-L-a) |

Molecular target: rh integrin α4β7 (R&D Systems #5397-A30) (human) (UniProt P13612)
Test: α4β7-MAdCAM competition ELISA

| Substance | IC50 [nM] |
| --- | --- |
| C-N cyclic peptide SEQ ID NO: 482, cyclo<a-(N-Me-R)-S-D-T-L-e> | > 1000 |
| C-N cyclic peptide SEQ ID NO: 492, cyclo<a-(N-Me-R)-S-D-T-L-f> | > 1000 |
| C-N cyclic peptide SEQ ID NO: 494, cyclo<f-(N-Me-R)-S-D-T-L-a> | > 1000 |
| C-N cyclic peptide SEQ ID NO: 500, cyclo<r-(N-Me-R)-S-D-T-L-a> | > 1000 |
| C-N cyclic peptide SEQ ID NO: 504, cyclo<a-(N-Me-R)-S-D-T-L-A-a> | > 1000 |
| C-N cyclic peptide SEQ ID NO: 503, cyclo<A-(N-Me-R)-S-D-T-L-k> | > 1000 |

More lines, now with the values ahead:

| IC50 [nM] | Substance |
| --- | --- |
| > 1000 | C-N cyclic peptide SEQ ID NO: 490, cyclo<a-(N-Me-R)-S-D-T-L-h> |
| > 1000 | C-N cyclic peptide SEQ ID NO: 480, cyclo<h-(N-Me-R)-S-D-T-L-a> |
| > 1000 | C-N cyclic peptide SEQ ID NO: 483, cyclo<a-(N-Me-R)-S-D-T-L-e> |
| > 1000 | C-N cyclic peptide SEQ ID NO: 489, cyclo<a-(N-Me-R)-S-D-T-L-l> |
| > 1000 | C-N cyclic peptide SEQ ID NO: 498, cyclo<p-(N-Me-R)-S-D-T-L-a> |
| > 1000 | C-N cyclic peptide SEQ ID NO: 496, cyclo<l-(N-Me-R)-S-D-T-L-a> |
| > 1000 | C-N cyclic peptide SEQ ID NO: 485, cyclo<k-(N-Me-R)-S-D-T-L-a> |
| > 1000 | C-N cyclic peptide SEQ ID NO: 502, cyclo<A-(N-Me-R)-S-D-T-L-a> |
| > 1000 | C-N cyclic peptide SEQ ID NO: 486, cyclo<k-(N-Me-R)-S-D-T-L-a> |
| > 1000 | C-N cyclic peptide SEQ ID NO: 478, cyclo<a-(N-Me-R)-S-D-T-L-n> |
